Measured values: US20070269440A1, “Stimulators of osteoblastogenesis and applications of the same” (Board of Trustees of the University of Arkansas, priority 2006, published 2007)

Experiments:
[1] = system: distracted tibia of 21-month-old C57BL6 mice; assay: Distraction osteogenesis in aged mice, new bone in DO gap by single-beam radiography; format: in vivo, mouse; settings: 21-month old mice, sTNF-RI 8.0 mg/kg s.c. every other day, 3-day latency, 14 days of distraction; control 27.3±8.4%, p<0.038
Description: For initial radiography a Xerox Micro 50 closed system radiography unit (Xerox, Pasadena, Calif.) was used at 40 kilovolts (3 mA) for 20 seconds with Kodak X-OMAT film to radiograph the specimens. For quantitation, the radiographs and histology slides are video recorded by radio camera under low power (1.25× objective) microscopic magnification and transferred into a computer (Macintosh IIx Image 1.28c). The radiographs allow for quantitation of mineralized bone within the distraction gap. The measured distraction gap area was outlined from the outside corners of the two proximal and the two distal cortices forming a quadrilateral region of interest. The mineralized new bone area in the gap was determined by outlining the regions with radiodensity equivalent to or greater than the adjacent medullary bone. Mean pixel density of the defined distraction gap was measured using NIH Image on an arbitrary 256 degree scale. […] The percentage of new mineralized bone area within the distraction gap (% new bone) was calculated by dividing mineralized bone area/gap area. (6, 7).
Twenty-four 21-month-old C57BL6 mice underwent placement of an external fixator and osteotomy to the left tibia. The surgeries were completed over a four-day period. After surgeries there were eleven mice in the control group (one died during surgery) and twelve mice in the group to be treated with sTNF-RI. […]

[2] = system: distracted tibia of 21-month-old C57BL6 mice; assay: Distraction osteogenesis in aged mice, new bone in DO gap by histology; format: in vivo, mouse; settings: 21-month old mice, sTNF-RI 8.0 mg/kg s.c. every other day, 3-day latency, 14 days of distraction; control 31.2±12.4%, p<0.009
Description: After radiography, the distracted tibiae were decalcified in 5% formic acid. The specimens were paraffin-embedded and cut into 5-7 micron longitudinal (coronal) sections on a microtome (Leitz 1512, Wetzlar, Germany) for staining (hematoxylin & eosin). The sections chosen for analysis were selected to represent a central or near central gap location. This was accomplished by choosing slides that contained all four full thickness cortices with intact marrow spaces on both the proximal and distal ends of the distraction gap. All organized osteoid/sinusoid columns were defined as new bone. We defined periosteal new bone as that outside of each cortex and endosteal new bone as that within the cortices. […] The distraction gap area was outlined from the outside corners of the two proximal and the two distal cortices forming a quadrilateral region of interest, and the area of that region (gap area) was recorded. Both the proximal and distal endosteal new bone matrix, which is easily distinguished from the central fibrous tissue at the PMF, was outlined and the area recorded (new bone area). The percentage of new bone within the distraction gap was calculated by dividing new bone area/gap area (8, 9-11). […]

B1: sTNF-RI: soluble TNF receptor Type I, a TNF blocker (TNF antagonist) (protein, UniProt P19438 30-211, looked up)
extracellular domain: LVPHLGDREKRDSVCPQGKYIHPQNNSICCTKCHKGTYLYNDCPGPGQDTDCRECESGSFTASENHLRHCLSCSKCRKEMGQVEISSCTVDRDTVCGCRKNQYRHYWSENLFQCFNCSLCLNGTVHLSCQEKQNTVCTCHAGFFLRENECVSCSNCKKSLECTKLCLPQIENVKGTEDSGTT
modifications: extracellular domain
- Mineralization of the DO gap, as measured from the radiographs (% of the distraction gap) [1]: 55.2±8.8 % SEM
- Mineralization of the DO gap, as measured histologically (% of the distraction gap) [2]: 76.1±7.5 % SEM
